Data as given in patent US12448434B2, “Antibodies specifically recognizing Pseudomonas PcrV and uses thereof” (priority 2019, dated 2025).

B1: 7B1: optimized anti-PcrV mAb clone; VH SEQ ID NO: 62, VL SEQ ID NO: 67 (antibody, V domains shown)
VH: EVQLLESGGGLVQPGGSLRLSCTASGFTFSDNYMSWVRQAPGKGLDWVSVISESGGSTNYADSVKGRFSTSRDNSKSTLYLDMNSLRAEDTAIYYCAKGRFSTLSSHFFRAVYGMDVWGQGTAVTVSS
VL: DIQLTQSPSSLSASVGDRVTITCRASQGISSYLAWYQQKPGKAPKLLIYAASTLQSGVPSRFSGSGSGTDFTLTISSLQPEDFATYYCQQLSSYPLTFGGGTKVEIK
B2: 7C1: optimized anti-PcrV mAb clone; VH SEQ ID NO: 52, VL SEQ ID NO: 65 (antibody, V domains shown)
VH: EVQLLESGGGLVQPGGSLRLSCTASGFTFSDNHMSWVRQAPGKGLDWVSGISESGGSTNYADSVKGRFSTSRDNSKSTLYLDMNSLRAEDTAIYYCAKGRFSTSSSHFYRAVYGMDVWGQGTAVTVSS
VL: DIQLTQSPSSLSASVGDRVTITCRASQGISSYLAWYQQKPGKAPKLLIYAASTLQSGVPSRFSGSGSGTDFTLTISSLQPEDFATYYCQQLSSYPLSFGGGTKVEIK
B3: 8C1: optimized anti-PcrV mAb clone; VH SEQ ID NO: 51, VL SEQ ID NO: 67 (antibody, V domains shown)
VH: EVQLLESGGGLVQPGGSLRLSCTASGFTFSDNHMSWVRQAPGKGLDWVSGISESGGSTNYADSVKGRFSTSRDNSKSTLYLDMNSLRAEDTAIYYCAKGRFSTNSAHFFRAVYGMDVWGQGTAVTVSS
VL: DIQLTQSPSSLSASVGDRVTITCRASQGISSYLAWYQQKPGKAPKLLIYAASTLQSGVPSRFSGSGSGTDFTLTISSLQPEDFATYYCQQLSSYPLTFGGGTKVEIK

Columns and labels:
[1] = test system: BV particles; test: Cross-reactivity to BV particles by ELISA; type: binding; conditions: FIG. 3
Method: Cross-reactivity to BV particles: Using ELISA, optimized antibodies 7C1, 7B1, 8C1, 6D10, and reference antibodies V2L2-MD and Mab166 were tested for cross-reactivity to BV particles according to the method described previously (See Hötzel I, et al, 2012, mAbs 4:6, 753-760).

[2] = test system: PcrV mutants (with mutations at position 225); test: Binding to PcrV mutants with mutations at position 225; design: species or system Pseudomonas aeruginosa; conditions: data not shown
Method: To further illustrate the optimized antibodies could broadly neutralize P. aeruginosa strains, the abilities of these antibodies to bind various forms of PcrV mutants were tested. Briefly, 100 PcrV sequences were randomly selected from Genebank database. In contrast to the wild type sequence as shown in SEQ ID No: 71, 13% of the selected sequences contained R, G, or K at position 225 (as compared of S in the wild type sequence SEQ No: 71), which was the main mutation around the epitope of 7B1.
These findings further illustrate that the optimized anti-PcrV antibodies could neutralize a broad spectrum of P. aeruginosa strains, which might express various forms of PcrV mutants.

[3] = test system: P. aeruginosa (PA103 strain); test: Therapeutic mouse acute pneumonia model, survival; type: in vivo, BALB/c mice; conditions: i.v. 1 h post-infection, 1 mg/kg or 10 mg/kg; 1*LD90; 6 days
Method: In a therapeutic model, to induce acute pneumonia, 7-8 week old BALB/c mice (Vital River Laboratory) were intranasally inoculated with P. aeruginosa (PA103 strain) suspended in a 40 μl inoculum at a lethal dose (1*LD90=8×10^5 CFU). Antibodies or PBS were administered intravenously (i.v.) at 1 h post-infection, at a dose of 1 mg/kg or 10 mg/kg mouse weight. Mouse survival was recorded for up to 6 days post-infection.

[4] = test system: P. aeruginosa (O6-57/66 strain); test: Prophylactic acute pneumonia model in immunodeficient mice, survival; type: in vivo, BALB/c mice; conditions: cyclophosphamide-immunosuppressed mice; 3.2 to 5 mg/kg i.p. 24 h before infection; 1*LD90; 10 days
Method: The ability of the optimized anti-PcrV antibodies 7C1, 7B1 and 8C1 to improve survival for acute pneumonia model in immunodeficient mice was evaluated in comparison to parental 13-42. HIV-10E8 was used as negative control. The acute pneumonia model in immunodeficient mice model was generated as described previously (DiGiandomenico et al., 2014, Sci. Transl. Med., 6: 262ra155).
In a prophylactic model, to achieve immunosuppression, 7-8 week old BALB/c mice (Vital River Laboratory) were first administered 2 doses of 150 mg/kg of cyclophosphamide, at 4 days and 1 day before P. aeruginosa infection, to suppress white cell count. Antibodies were then administered intraperitoneally (i.p.) at 24 h before infection, at doses of 3.2 to 5 mg/kg mouse weight. To induce acute pneumonia, the BALB/c mice were intranasally inoculated with P. aeruginosa (O6-57/66 strain) suspended in a 40 μl inoculum at the lethal dose (1*LD90=[…]). Mouse survival was recorded for up to 10 days post-infection.

[5] = test system: P. aeruginosa strains O6-57/66, O11-PA103, O1-52/66 and O16-177/81; test: A549 cell lysis inhibition, various strains (average); type: cell-based, Pseudomonas aeruginosa; conditions: FIGS. 6A-6D
Method: To assay for ability to inhibit cytotoxicity and cell lysis caused by P. aeruginosa, the candidate anti-PcrV antibodies were added to human bronchoepithelial cell line A549 or human histiocytic lymphoma cell line U937 seeded in white 96-well plates (Nunc Nunclon Delta) in DMEM plus 10% fetal bovine serum. Log-phase strain PA103(O11) P. aeruginosa was added at a multiplicity of infection (MOI) of 10 and incubated for 2 h at 37° C. and 5% CO2, followed by 20 minutes of equilibration at room temperature. Lactate dehydrogenase (LDH) released from lysed cells was quantified using the CytoTox-ONE kit (Promega), to assay membrane integrity. The relative amount of lysis inhibition was plotted accordingly. IC50 values for the antibodies were also determined.
The optimized anti-PcrV mAb clones 7C1, 8C1, and 7B1 were analyzed for their abilities to inhibit A549 cell lysis by various strains of P. aeruginosa, namely strains O6-57/66, O11-PA103, O1-52/66 and O16-177/81, as compared to the parental 13-42 mAb. A549 cell lysis inhibition assay was performed as described in Example 2.

[6] = rat, in vivo, iv
Method: Pharmacokinetic profile in rat: 40 healthy adult rats (about 0.2 kg by weight) were equally into two groups, where each group registered similar average weight. One group was injected intravenously with 30 mg/kg of V2L2-MD, 7C1, 7B1, 8C1 or 6D10 and the other group was injected intravenously with 3 mg/kg of V2L2-MD, 7C1, 7B1, 8C1 or 6D10. Blood was collected at […], and subsequently at 0 hour, 0.5 hour, 2 hour, 8 hour, 1 day, 3 days, 7 days, 11 days, 17 days, 23 days, 31 days, 41 days and 52 days after injection. After centrifugation, the plasma was used for analyzing antibody concentration using ELISA. For the ELISA experiment, synthetic PcrV was used to coat the wells of a 96-well plate. On the following day, after washing with PBST, blocking with 200 μL PBS-milk for an hour, and another wash with PBST, the plasma was added and incubated for an hour at 37° C. The plate was washed with 0.1% TBST for 6 times before 100 μL of Goat-anti-human Fc antibody-AP (1:3000 in PBS) was added to each well and incubated for an hour. After washing with 0.1% TBST for 6 times, 50 μL of pNPP was added to each well and color was developed for 10-20 minutes at 37° C. The signals were read by a microplate reader at 410 nm.

[7] = test system: P. aeruginosa (PA103 strain); test: Prophylactic mouse acute pneumonia model, organ burden; type: in vivo, BALB/c mice; conditions: 10 mg/kg i.p. 24 hr before infection; 0.5*LD90; FIG. 8B
Method: In a prophylactic model, 7-8 week old BALB/c mice (Vital River Laboratory) were administered with antibodies or PBS intraperitoneally (i.p.) 24 hr before infection, at 10 mg/kg mouse weight. To induce acute pneumonia, the BALB/c mice were intranasally inoculated with P. aeruginosa (PA103 strain) suspended in a 40 μl inoculum at half the lethal dose (0.5*LD90; 3×10^5 CFU). 24 hours post-infection, mice were euthanized, where the lungs, spleens and kidneys were extracted, homogenized and diluted before plating on agar to measure the viable bacteria units (in CFU), which represented the P. aeruginosa burden in the respective organ sample.

[8] = test system: PcrV; test: BIACORE binding to PcrV; design: species or system Pseudomonas aeruginosa; conditions: data not shown
Method: The association constant (ka), dissociation constant (kd) and the equilibrium dissociation constant (kD) for binding of optimized anti-PcrV mAb clones 7B1, 7C1, 8C1, 6D10 and reference antibody V2L2-MD to PcrV were tested by BIACORE (GE company).

Row | Molecule | non-specific binding to BV particles [1] | binding to PcrV mutants with R, G or K at position 225 [2] | survival improvement relative to V2L2-MD [3] | survival improvement / protection relative to parental 13-42 antibody [4] | efficacy in inhibiting A549 lysis by four strains relative to parental 13-42 mAb [5] | half-lives relative to reference antibody V2L2-MD [6] | reduction of organ burden in the lung, spleen and kidney relative to HIV-10E8 [7] | reduction of organ burden in the lung, spleen and kidney relative to V2L2-MD [7] | association and dissociation kinetics in PcrV binding (ka and kd values) [8]
1 | B1 | low levels of non-specific binding | strongly bind these mutants | survival improvement comparable to that of V2L2-MD | comparable or better protection than the parental 13-42 antibody | comparable efficacy in inhibiting A549 lysis | comparable to or longer than that of reference antibody V2L2-MD | higher efficacy in reducing organ burden | comparable efficacy in reducing organ burden | comparable association and dissociation kinetics
2 | B2 | low levels of non-specific binding | strongly bind these mutants | survival improvement comparable to that of V2L2-MD | better survival improvement than the parental 13-42 antibody | comparable efficacy in inhibiting A549 lysis | comparable to or longer than that of reference antibody V2L2-MD | higher efficacy in reducing organ burden | comparable efficacy in reducing organ burden | comparable association and dissociation kinetics
3 | B3 | low levels of non-specific binding | strongly bind these mutants | survival improvement comparable to that of V2L2-MD | comparable or better protection than the parental 13-42 antibody | comparable efficacy in inhibiting A549 lysis | comparable to or longer than that of reference antibody V2L2-MD | higher efficacy in reducing organ burden | comparable efficacy in reducing organ burden | comparable association and dissociation kinetics
